T1: human IL-12Rβ2 (human, UniProt Q99665 24-862)
T1 construct: Expressed on HEK293T cells transiently transfected with a pcDNA3 plasmid (Genscript clone OHu21785); also called hIL-12RB2; IL-12 receptor β2 subunit
T1 sequence: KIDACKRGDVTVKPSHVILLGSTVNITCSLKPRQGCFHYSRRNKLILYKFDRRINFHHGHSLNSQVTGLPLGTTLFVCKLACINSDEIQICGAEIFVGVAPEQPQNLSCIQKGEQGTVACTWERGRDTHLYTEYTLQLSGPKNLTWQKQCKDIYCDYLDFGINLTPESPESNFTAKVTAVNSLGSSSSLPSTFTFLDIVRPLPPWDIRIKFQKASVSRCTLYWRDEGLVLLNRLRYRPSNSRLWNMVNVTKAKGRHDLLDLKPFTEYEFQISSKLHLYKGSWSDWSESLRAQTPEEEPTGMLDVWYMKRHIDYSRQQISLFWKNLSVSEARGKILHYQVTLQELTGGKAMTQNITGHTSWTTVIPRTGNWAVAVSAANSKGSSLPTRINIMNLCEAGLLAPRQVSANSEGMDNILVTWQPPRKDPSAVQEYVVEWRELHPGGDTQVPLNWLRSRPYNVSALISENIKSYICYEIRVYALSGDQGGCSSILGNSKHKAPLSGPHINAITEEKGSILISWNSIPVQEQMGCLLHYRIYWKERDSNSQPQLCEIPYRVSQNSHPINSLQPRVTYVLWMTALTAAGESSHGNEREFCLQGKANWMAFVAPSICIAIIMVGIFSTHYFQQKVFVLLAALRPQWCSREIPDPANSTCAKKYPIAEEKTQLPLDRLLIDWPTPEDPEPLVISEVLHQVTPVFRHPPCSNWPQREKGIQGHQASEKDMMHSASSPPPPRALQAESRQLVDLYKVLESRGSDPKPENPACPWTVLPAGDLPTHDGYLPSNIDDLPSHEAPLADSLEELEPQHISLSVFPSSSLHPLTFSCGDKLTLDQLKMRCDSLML


Biological target: T1, human IL-12Rβ2
Test: flow cytometry, P.E. on transfected HEK293T cells

| Binder | % cells bound | dMFI |
| --- | --- | --- |
| anti-IL-12Rβ2 VHH clone 2CRH33 (VHH, not shown: small tags and cut ends, periplasmic extract; also called 20363) VHH: QVQLQESGGGSVQPGWSLRLTCAASGFTFSTSGMHWFRQAPGKGLEWVSSISSGGGDTYYTDSVKGRITISRDNAKNTLYLQLNDLKSEDTAVYYCSKDPSGATRGQGTQVTVSS | 44.8% | 1120 |
| anti-IL-12Rβ2 VHH clone 2CRH60 (VHH, not shown: small tags and cut ends, periplasmic extract) VHH: QVQLQESGGGSVQPGGSLRLTCAASGFTFSTSGMHWFRQAPGKGLEWVSSISSGGGDTYYTDSVKGRITISRDNAKNTLYLQLNDLKSEDTAVYYCSKDPSGATRGQGTQVTVSS | 45.3% | 1100 |
| anti-IL-12Rβ2 VHH clone 3CRHS9 (VHH, not shown: small tags and cut ends, periplasmic extract) VHH: QVQLQESGGGLVQPGGSLRLSCTASGSIVSIYNMDWYRQAPGNEREWVASITSSGDPYYDGSAKGRFTISRDNAKMTVYLQMNSLKPEDTAVYYCKVPTEKGNYWGQGTQVTVSS | 42.1% | 1040 |
| anti-IL-12Rβ2 VHH clone 3CRH27 (VHH, not shown: small tags and cut ends, periplasmic extract) VHH: QVQLQESGGGLVQAGGSLRLSCTASGSIVSIYNMDWYRQAPGNEREWVASITSSGDPYYDGSAKGRFTISRDNAKMTVYLQMNSLKPEDTAVYYCKVPTEKGNYWGQGTQVTVSS | 38.9% | 812 |
| anti-IL-12Rβ2 VHH clone 3CRH18 (VHH, not shown: small tags and cut ends, periplasmic extract) VHH: QVQLQESGGGLVQPGGSLRLSCTASGNIVSIYNMDWYRQAPGNQREWVASITSSGDPYYDGSAKGRFTISRDNAKMTVYLQMNSLRPEDTAVYYCKVPTEKGNYWGQGTQVTVSS | 41.7% | 918 |
| anti-IL-12Rβ2 VHH clone 3CRH68 (VHH, not shown: small tags and cut ends, periplasmic extract) VHH: QVQLQESGGGLVQPGGSLRLSCTASGSILSIYNMDWYRQVPGNQREWVASITPSGDPYYDGSVKGRFTISRDNAKMMVYLQMNSLKPEDTAVYYCKVPTEKGNYWGQGTQVTVSS | 38.2% | 787 |
| anti-IL-12Rβ2 VHH clone 3CRHS1 (VHH, not shown: small tags and cut ends, periplasmic extract) VHH: QVQLQESGGGSVQPGGSLRLSCAASGFTFSTSGMHWFRQAPGKGLEWVSSIGIIVDSSYYASSVKGRFTISRDNAKNTLYLQMNSLKSEDTAVYYCSKDPTGSSRGQGTQVTVSS | 44.5% | 1080 |
| anti-IL-12Rβ2 VHH clone 3CRH45 (VHH, not shown: small tags and cut ends, periplasmic extract) VHH: QVQLQESGGGLVQPGGSLRLSCAASGFTFSTFGMHWFRQAPGKGLEWVSSIGIIDDNSYYASSVKGRFTISRDNAKNTLYLQMNSLKSEDTAVYYCSKDTTGSSRGQGTQVTVSS | 37.6% | 742 |
| anti-IL-12Rβ2 VHH clone 2CRH80 (VHH, not shown: small tags and cut ends, periplasmic extract) VHH: QVQLQESGGGLVQPGGSLRLSCAASGFTFSTSGMHWFRQAPGKGLEWVSSIGIIVGSSYYASSVKGRFTISRDNAKNTLYLHMNSLKSEDTAVYYCSKDVTGSSRGQGTQVTVSS | 40.1% | 809 |
| anti-IL-12Rβ2 VHH clone 3CRH43 (VHH, not shown: small tags and cut ends, periplasmic extract) VHH: QVQLQESGGGSVQPGGSLRLSCAASGFTFSTSGMHWFRQAPGKGLEWVSSIGIIVDSSYYASSVKGRFTISRDNAKNIVYLQMNSLKSEDTAVYYCSKDPTGSSRGQGTQVTVSS | 45.5% | 1160 |
| anti-IL-12Rβ2 VHH clone 3CRH14 (VHH, not shown: small tags and cut ends, periplasmic extract) VHH: QVQLQESGGGLVQPGGSLRLSCAASGFTFSTSGMHWFRQAPGKGLEWVSSIGIIVDSSYYADSVKGRFTISRDNAKNTLFLQMNSLKSEDTAVYYCSKDPTGSSRGQGTQVTVSS | 41.7% | 864 |
| anti-IL-12Rβ2 VHH clone 3CRH17 (VHH, not shown: small tags and cut ends, periplasmic extract) VHH: QVQLQESGGGLVQAGGSLVLSCAASGSAALIFLMSWYRQAPGKQRELVAEVSRYGSTTYADSVEGRFTISRDNAKNIVDLQMNSLKPEDTAVYYCKADQYYGDSLRSSWGRGTQVTVSS | 32.5% | 583 |
| anti-IL-12Rβ2 VHH clone 2CRH10 (VHH, not shown: small tags and cut ends, periplasmic extract; also called 20362) VHH: QVQLQESGGGLVQAGGSLVLSCAASGSAALIFLMSWYRQAPGKQRELVAEVSRGGSTTYADSVEGRFHISRDNAKNIVDLQMNSLKPEDTAVYYCKADQNYGDSLRSSWGRGTQVTVSS | 30.8% | 595 |
| anti-IL-12Rβ2 VHH clone 2CRH53 (VHH, not shown: small tags and cut ends, periplasmic extract) VHH: QVQLQESGGGLVQAGGSLVLSCAASGSAALIFLMSWYRQAPGKQRELVAEVSRYGSTTYADSVEGRFTISRDNAKDIVDLQMNSLKPEDTAVYYCKADQYYGDSLRSSWGRGTQVTVSS | 35.3% | 686 |
| anti-IL-12Rβ2 VHH clone 3CRH67 (VHH, not shown: small tags and cut ends, periplasmic extract) VHH: QVQLQESGGGLVQAGGSLVLSCAASGSAALIFLMSWYRQAPGKQRELVAEVSRYGSTTYADSVEGRFTISRDNAKNIVDLQMNSLKPEDTAAYYCKADQYYGDSLRSSWGRGTQVTVSS | 35.1% | 645 |
| anti-IL-12Rβ2 VHH clone 3CRH5 (VHH, not shown: small tags and cut ends, periplasmic extract) VHH: QVQLQESGGGLVQAGGSLVLSCAASGSAALIFLMSWYRQAPGKQRELVAEVSRGGSTTYADSVEGRFTISRDNAKNIVDLQMNSLKPEDTAVYYCKADQNYGDSLRSSWGQGTQVTVSS | 39.5% | 835 |
| anti-IL-12Rβ2 VHH clone 3CRHS2 (VHH, not shown: small tags and cut ends, periplasmic extract) VHH: QVQLQESGGGLVQLGGSLTLSCAASGSAALIFLMSWYRQAPGKQRELVAEVSRYGSTTYADSVEGRFTISRDNAKNIVDLQMNSLKPEDTAVYYCKADQYYGDSLRSSWGRGTQVTVSS | 44.5% | 1150 |
| anti-IL-12Rβ2 VHH clone 3CRH38 (VHH, not shown: small tags and cut ends, periplasmic extract) VHH: QVQLQESGGGLVQAGGSLVLSCAASGSAALIFLMSWYRQAPGKQRELVAEVSRGGSTTYADSVEGRFTISRDNAKNIVDLQMNSLKPEDTAVYYCKADQNYGDSLRSSWGRGTQVTVSS | 31.8% | 537 |
| anti-IL-12Rβ2 VHH clone 2CRH73 (VHH, not shown: small tags and cut ends, periplasmic extract) VHH: QVQLQESGGGLVQAGGSLRLTCTASGSAALIFLMSWYRQAPGKQRELVAEVSRRGSTTYADSVEGRFTISRDNAKNIVDLQMNSLKPEDTAVYYCKADQYYGDSLRSSWGRGTQVTVSS | 36.7% | 707 |

Second part, the binder after the results:

| % cells bound | dMFI | Binder |
| --- | --- | --- |
| 41.5% | 970 | anti-IL-12Rβ2 VHH clone 3CRHS54 (VHH, not shown: small tags and cut ends, periplasmic extract) VHH: QVQLQESGGGLVQPGGSLRLSCTASGSIVSIYNMDWYRQAPGNEREWVASITSSGDPYYDGSAKGRFTISRDNAKMTVYLQMNSLEPEDTAVYFCKVPTEKGNYWGQGTQVTVSS |
| 40.5% | 961 | anti-IL-12Rβ2 VHH clone 3CRHS55 (VHH, not shown: small tags and cut ends, periplasmic extract) VHH: QVQLQESGGGLVQAGGSLNLSCTASGSIISIYNMDWYRQAPGNQREWVASITSNGDSYYDGSAKGRFTISRDNAKMTVYLQMNSLKPEDTAVYYCKVPTENGNYWGQGTQVTVSS |
| 47.2% | 1320 | anti-IL-12Rβ2 VHH clone 3CRHS3 (VHH, not shown: small tags and cut ends, periplasmic extract) VHH: QVQLQESGGGLVQPGGSLRLSCTASGSIFSIYNMDWYRQAPGNQREWVASITSSGDPYYDASVKGRFTISRDSAKMTVYLQMNSLKPEDTAVYYCKLPTEKGNYWGQGTQVTVSS |
| 42% | 1030 | anti-IL-12Rβ2 VHH clone 3CRHS148 (VHH, not shown: small tags and cut ends, periplasmic extract) VHH: QVQLQESGGGLVQPGGSLRLSCIASGSIFSIYNMDWYRQAPGNQREWVASITPSGDPYYDDSAKGRFTISRDNAKMTVYLQMNSLKPEDTAVYYCKVPTEKGNYWGQGTQVTVSS |
| 43.2% | 1130 | anti-IL-12Rβ2 VHH clone 3CRHS100 (VHH, not shown: small tags and cut ends, periplasmic extract) VHH: QVQLQESGGGLVQPGGSLRLSCTASGSIFSIYNMDWYRQAPGNQREWVASITPSGDPYYDDSAKGRFTISRDNAKMTVYLQMNSLKPEDTAVYYCKVPTEKGNYWGQGTQVTVSS |
| 46.5% | 1260 | anti-IL-12Rβ2 VHH clone 3CRHS109 (VHH, not shown: small tags and cut ends, periplasmic extract) VHH: QVQLQESGGGLVQPGGSLRLSCAASGFTFSTSGMHWFRQAPGKGLEWVSSIGIIVDSSYYASSVKGRFTISRDNAKNTLYLHMNSLKSEDTAVYYCSKDVTGSSRGQGTQVTVSS |
| 50.5% | 1480 | anti-IL-12Rβ2 VHH clone 3CRHS128 (VHH, not shown: small tags and cut ends, periplasmic extract) VHH: QVQLQESGGGLVQPGGSLRLSCAASGFTFSTSGMHWFRQAPGKGLEWVSSIGATVDNSYYASSVKGRFTISRDNAKNTLYLLMNSLKSEDTAVYYCSKDPTGSSRGQGTQVTVSS |
| 33.3% | 625 | anti-IL-12Rβ2 VHH clone 3CRHS184 (VHH, not shown: small tags and cut ends, periplasmic extract) VHH: QVQLQESGGGLVQAGGSLVLSCAASGSAALIFLMSWYRQAPGKQRELVAEVSRYGSTTYADSVEGRFTISRDNAKNIVDLQMNSLKPEDTAVYYCKADQYYGDSLRSSWGRGTQLTVSS |

— patent US20260209362A1 (VIB VZW, published 2026)
